IntAct's records for PubMed 16778766

B1: Estrogen receptor (Mus musculus), P19785 (parent)
chain: MTMTLHTKASGMALLHQIQGNELEPLNRPQLKMPMERALGEVYVDNSKPTVFNYPEGAAYEFNAAAAAAAAASAPVYGQSGIAYGPGSEAAAFSANSLGAFPQLNSVSPSPLMLLHPPPQLSPFLHPHGQQVPYYLENEPSAYAVRDTGPPAFYRSNSDNRRQNGRERLSSSNEKGNMIMESAKETRYCAVCNDYASGYHYGVWSCEGCKAFFKRSIQGHNDYMCPATNQCTIDKNRRKSCQACRLRKCYEVGMMKGGIRKDRRGGRMLKHKRQRDDLEGRNEMGASGDMRAANLWPSPLVIKHTKKNSPALSLTADQMVSALLDAEPPMIYSEYDPSRPFSEASMMGLLTNLADRELVHMINWAKRVPGFGDLNLHDQVHLLECAWLEILMIGLVWRSMEHPGKLLFAPNLLLDRNQGKCVEGMVEIFDMLLATSSRFRMMNLQGEEFVCLKSIILLNSGVYTFLSSTLKSLEEKDHIHRVLDKITDTLIHLMAKAGLTLQQQHRRLAQLLLILSHIRHMSNKGMEHLYNMKCKNVVPLYDLLLEMLDAHRLHAPASRMGVPPEEPSQTQLATTSSTSAHSLQTYYIPPEAEGFPNTI

Variants of: B1
Details: with cnot1_human CNOT1, A5YKK6
cnot1_human CNOT1, A5YKK6, sequence (A5YKK6 whole entry): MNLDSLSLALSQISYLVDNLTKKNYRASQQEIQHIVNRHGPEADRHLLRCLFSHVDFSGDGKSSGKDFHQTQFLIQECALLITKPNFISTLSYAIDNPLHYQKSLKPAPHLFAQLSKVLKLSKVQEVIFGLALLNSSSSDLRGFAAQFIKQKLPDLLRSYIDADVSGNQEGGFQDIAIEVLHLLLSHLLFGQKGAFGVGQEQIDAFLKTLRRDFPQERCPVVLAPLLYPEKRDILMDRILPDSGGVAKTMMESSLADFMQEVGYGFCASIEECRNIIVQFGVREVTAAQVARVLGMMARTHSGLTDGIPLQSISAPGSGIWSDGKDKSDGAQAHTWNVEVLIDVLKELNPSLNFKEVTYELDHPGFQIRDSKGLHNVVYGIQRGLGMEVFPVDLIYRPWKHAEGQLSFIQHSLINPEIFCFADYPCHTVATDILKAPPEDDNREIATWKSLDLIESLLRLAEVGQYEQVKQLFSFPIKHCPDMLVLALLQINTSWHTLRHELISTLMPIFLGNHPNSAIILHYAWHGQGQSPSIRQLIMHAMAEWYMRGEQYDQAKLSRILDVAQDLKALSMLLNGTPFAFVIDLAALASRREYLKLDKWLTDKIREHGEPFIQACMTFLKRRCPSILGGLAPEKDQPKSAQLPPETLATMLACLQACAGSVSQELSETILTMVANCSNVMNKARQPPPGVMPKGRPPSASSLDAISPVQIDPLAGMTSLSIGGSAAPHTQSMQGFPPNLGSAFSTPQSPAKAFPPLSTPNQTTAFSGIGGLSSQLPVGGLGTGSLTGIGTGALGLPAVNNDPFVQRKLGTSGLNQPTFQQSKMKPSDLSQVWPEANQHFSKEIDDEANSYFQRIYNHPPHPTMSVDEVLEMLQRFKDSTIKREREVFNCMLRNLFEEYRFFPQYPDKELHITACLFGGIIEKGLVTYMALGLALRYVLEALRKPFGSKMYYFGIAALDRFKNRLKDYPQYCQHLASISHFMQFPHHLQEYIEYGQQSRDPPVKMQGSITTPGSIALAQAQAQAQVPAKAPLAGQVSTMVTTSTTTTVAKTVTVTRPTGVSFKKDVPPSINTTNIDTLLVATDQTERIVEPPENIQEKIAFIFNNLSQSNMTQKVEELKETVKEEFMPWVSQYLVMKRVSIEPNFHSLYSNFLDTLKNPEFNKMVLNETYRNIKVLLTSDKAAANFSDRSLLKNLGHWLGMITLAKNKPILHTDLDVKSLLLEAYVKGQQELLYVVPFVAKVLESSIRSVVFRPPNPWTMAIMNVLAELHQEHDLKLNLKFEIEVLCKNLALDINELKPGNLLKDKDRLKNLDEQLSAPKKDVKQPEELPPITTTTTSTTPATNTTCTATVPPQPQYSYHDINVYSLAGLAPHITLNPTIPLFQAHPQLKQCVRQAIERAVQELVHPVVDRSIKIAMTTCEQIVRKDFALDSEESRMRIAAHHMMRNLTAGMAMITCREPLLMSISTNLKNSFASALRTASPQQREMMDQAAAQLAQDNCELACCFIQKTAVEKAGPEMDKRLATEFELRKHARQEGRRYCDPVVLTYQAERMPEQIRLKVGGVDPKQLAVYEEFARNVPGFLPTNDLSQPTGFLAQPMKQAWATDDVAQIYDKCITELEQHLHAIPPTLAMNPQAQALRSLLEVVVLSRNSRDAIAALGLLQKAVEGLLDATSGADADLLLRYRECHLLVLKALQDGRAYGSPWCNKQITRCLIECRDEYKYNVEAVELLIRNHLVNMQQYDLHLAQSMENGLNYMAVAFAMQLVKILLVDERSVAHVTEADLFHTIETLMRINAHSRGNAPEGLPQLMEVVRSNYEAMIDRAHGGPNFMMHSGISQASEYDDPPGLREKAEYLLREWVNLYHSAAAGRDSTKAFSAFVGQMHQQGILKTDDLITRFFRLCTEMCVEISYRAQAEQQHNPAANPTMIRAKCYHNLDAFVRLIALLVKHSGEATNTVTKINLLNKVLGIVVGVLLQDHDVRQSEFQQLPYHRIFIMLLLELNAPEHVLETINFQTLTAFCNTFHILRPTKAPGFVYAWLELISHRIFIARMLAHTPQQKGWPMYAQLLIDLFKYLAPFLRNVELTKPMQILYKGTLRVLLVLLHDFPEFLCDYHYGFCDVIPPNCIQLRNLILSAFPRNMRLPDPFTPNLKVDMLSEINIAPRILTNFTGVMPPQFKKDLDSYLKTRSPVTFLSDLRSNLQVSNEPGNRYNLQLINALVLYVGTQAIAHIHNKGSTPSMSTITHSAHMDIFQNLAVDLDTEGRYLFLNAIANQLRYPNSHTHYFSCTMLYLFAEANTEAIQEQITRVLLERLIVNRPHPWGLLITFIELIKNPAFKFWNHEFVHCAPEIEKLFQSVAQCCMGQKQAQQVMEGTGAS

Row | effect of a mutation on the interaction | Variant
1 | disrupting interaction | MTMTLHTKASGMALLHQIQGNELEPLNRPQLKMPMERALGEVYVDNSKPTVFNYPEGAAYEFNAAAAAAAAASAPVYGQSGIAYGPGSEAAAFSANSLGAFPQLNSVSPSPLMLLHPPPQLSPFLHPHGQQVPYYLENEPSAYAVRDTGPPAFYRSNSDNRRQNGRERLSSSNEKGNMIMESAKETRYCAVCNDYASGYHYGVWSCEGCKAFFKRSIQGHNDYMCPATNQCTIDKNRRKSCQACRLRKCYEVGMMKGGIRKDRRGGRMLKHKRQRDDLEGRNEMGASGDMRAANLWPSPLVIKHTKKNSPALSLTADQMVSALLDAEPPMIYSEYDPSRPFSEASMMGLLTNLADRELVHMINWAKRVPGFGDLNLHDQVHLLECAWLEILMIGLVWRSMEHPGKLLFAPNLLLDRNQGKCVEGMVEIFDMLLATSSRFRMMNLQGEEFVCLKSIILLNSGVYTFLSSTLKSLEEKDHIHRVLDKITDTLIHLMAKAGLTLQQQHRRLAQLLLILSHIRHMSNKGMEHLYNMKCKNVVPLYDLLLEMADAHRLHAPASRMGVPPEEPSQTQLATTSSTSAHSLQTYYIPPEAEGFPNTI [L548A]
2 | disrupting interaction | MTMTLHTKASGMALLHQIQGNELEPLNRPQLKMPMERALGEVYVDNSKPTVFNYPEGAAYEFNAAAAAAAAASAPVYGQSGIAYGPGSEAAAFSANSLGAFPQLNSVSPSPLMLLHPPPQLSPFLHPHGQQVPYYLENEPSAYAVRDTGPPAFYRSNSDNRRQNGRERLSSSNEKGNMIMESAKETRYCAVCNDYASGYHYGVWSCEGCKAFFKRSIQGHNDYMCPATNQCTIDKNRRKSCQACRLRKCYEVGMMKGGIRKDRRGGRMLKHKRQRDDLEGRNEMGASGDMRAANLWPSPLVIKHTKKNSPALSLTADQMVSALLDAEPPMIYSEYDPSRPFSEASMMGLLTNLADRELVHMINWAKRVPGFGDLNLHDQVHLLECAWLEILMIGLVWRSMEHPGKLLFAPNLLLDRNQGKCVEGMVEIFDMLLATSSRFRMMNLQGEEFVCLKSIILLNSGVYTFLSSTLKSLEEKDHIHRVLDKITDTLIHLMAKAGLTLQQQHRRLAQLLLILSHIRHMSNKGMEHLYNMKCKNVVPLYDLLLEALDAHRLHAPASRMGVPPEEPSQTQLATTSSTSAHSLQTYYIPPEAEGFPNTI [M547A]
